# Test results: IntAct's records for PubMed 9343432
# B1: Polyhomeotic-proximal chromatin protein (Drosophila melanogaster (Fruit fly)), P39769 (parent)
# chain: MDRRALKFMQKRADTESDTTTPVSTTASQGISASAILAGGTLPLKDNSNIREKPLHHNYNHNNNNSSQHSHSHQQQQQQQVGGKQLERPLKCLETLAQKAGITFDEKYDVASPPHPGIAQQQATSGTGPATGSGSVTPTSHRHGTPPTGRRQTHTPSTPNRPSAPSTPNTNCNSIARHTSLTLEKAQNPGQQVAATTTVPLQISPEQLQQFYASNPYAIQVKQEFPTHTTSGSGTELKHATNIMEVQQQLQLQQQLSEANGGGAASAGAGGAASPANSQQSQQQQHSTAISTMSPMQLAAATGGVGGDWTQGRTVQLMQPSTSFLYPQMIVSGNLLHPGGLGQQPIQVITAGKPFQGNGPQMLTTTTQNAKQMIGGQAGFAGGNYATCIPTNHNQSPQTVLFSPMNVISPQQQQNLLQSMAAAAQQQQLTQQQQQFNQQQQQQLTQQQQQLTAALAKVGVDAQGKLAQKVVQKVTTTSSAVQAATGPGSTGSTQTQQVQQVQQQQQQTTQTTQQCVQVSQSTLPVGVGGQSVQTAQLLNAGQAQQMQIPWFLQNAAGLQPFGPNQIILRNQPDGTQGMFIQQQPATQTLQTQQNQIIQCNVTQTPTKARTQLDALAPKQQQQQQQVGTTNQTQQQQLAVATAQLQQQQQQLTAAALQRPGAPVMPHNGTQVRPASSVSTQTAQNQSLLKAKMRNKQQPVRPALATLKTEIGQVAGQNKVVGHLTTVQQQQQATNLQQVVNAAGNKMVVMSTTGTPITLQNGQTLHAATAAGVDKQQQQLQLFQKQQILQQQQMLQQQIAAIQMQQQQAAVQAQQQQQQQVSQQQQVNAQQQQAVAQQQQAVAQAQQQQREQQQQVAQAQAQHQQALANATQQILQVAPNQFITSHQQQQQQQLHNQLIQQQLQQQAQAQVQAQVQAQAQQQQQQREQQQNIIQQIVVQQSGATSQQTSQQQQHHQSGQLQLSSVPFSVSSSTTPAGIATSSALQAALSASGAIFQTAKPGTCSSSSPTSSVVTITNQSSTPLVTSSTVASIQQAQTQSAQVHQHQQLISATIAGGTQQQPQGPPSLTPTTNPILAMTSMMNATVGHLSTAPPVTVSVTSTAVTSSPGQLVLLSTASSGGGGSIPATPTKETPSKGPTATLVPIGSPKTPVSGKDTCTTPKSSTPATVSASVEASSSTGEALSNGDASDRSSTPSKGATTPTSKQSNAAVQPPSSTTPNSVSGKEEPKLATCGSLTSATSTSTTTTITNGIGVARTTASTAVSTASTTTTSSGTFITSCTSTTTTTTSSISNGSKDLPKAMIKPNVLTHVIDGFIIQEANEPFPVTRQRYADKDVSDEPPKKKATMQEDIKLSGIASAPGSDMVACEQCGKMEHKAKLKRKRYCSPGCSRQAKNGIGGVGSGETNGLGTGGIVGVDAMALVDRLDEAMAEEKMQTEATPKLSESFPILGASTEVPPMSLPVQAAISAPSPLAMPLGSPLSVALPTLAPLSVVTSGAAPKSSEVNGTDRPPISSWSVDDVSNFIRELPGCQDYVDDFIQQEIDGQALLLLKEKHLVNAMGMKLGPALKIVAKVESIKEVPPPGEAKDPGAQ
# B2: Polycomb protein Scm (Drosophila melanogaster (Fruit fly)), Q9VHA0 (parent)
# chain: MSGGRDSSTSSGSNSAAPGASTNATSSASASASSTSTSASPGSTTSPASTQRQRGRPAKRATCTWCGEGKLPLQYVLPTQTGKKEFCSETCIAEFRKAYSKGACTQCDNVIRDGAPNKEFCSIMCMNKHQKKNCSTRHSGGSASGKGLAESERKLLASGAPAPTGPFQYESFHVFDWDAYLEETGSEAAPAKCFKQAQNPPNNDFKIGMKLEALDPRNVTSTCIATVVGVLGSRLRLRLDGSDSQNDFWRLVDSTEIHAIGHCEKNGGMLQPPLGFRMNASSWPGYLCKILNNAMVAPEEIFQPEPPEPEENLFKVGQKLEAVDKKNPQLICCATVDAIKDDQIHVTFDGWRGAFDYWCNYRSRDIFPAGWCARSCHPMQPPGHKSRMDSSSSKQRCPRPRYTVVAESEAMVPASPATAHFHPNCKGGPFINNSKLPCMVTGPTYQTLAKLCLQEVLAASTDTQQLSKLLFALEGDVHIVTAAGKNFTVKIPSPMRMKDDESLAQFIETLCTTCRACANLISLVHETEECKKCANSRKRQLTQSATPPSSPVLADKRNRQSNSATTSPSEKIIKQELAVKSPVESKSKTSTNNGKEPASQQNSNHSLNNNNNSASKSSNKVVIKSEPNGANAQTSSTTQALRKVRFQHHANTNTNSSATNGNQDTSQTTHVSTSHCSSSSTSSSTSLAGGSANTSTIGKYLAPLVAEVHPEQANVKPSNSYYKSPTTLSSSASLPTSVSTPFTGCQSASSTALAAGGVTAAKAATAPAGAAATAGASPSYTAITSPVSTPTSALANSHLRSQPIDWTIEEVIQYIESNDNSLAVHGDLFRKHEIDGKALLLLNSEMMMKYMGLKLGPALKICNLVNKVNGRRNNLAL
# Variants of: B1
# Conditions: with scm_drome Scm, Q9VHA0
row,effect of a mutation on the interaction,Variant
1,decreasing interaction,W1513A
2,decreasing interaction,G1562A

# Variants of: B2
# Conditions: with php_drome ph-p, P39769
row,effect of a mutation on the interaction,Variant
1,decreasing interaction,G836S
